Measured values taken from patent US20070154472A1 (published 2007).
[ ]: non-standard residue; d: D form. The star is where a group is joined. Biotin = O=C1N[C@H]2[C@H](CS[C@H]2CCCCC(=O)*)N1; pY = N[C@@H](Cc1ccc(OP(=O)(O)O)cc1)C(=O)O; βAla = NCCC(=O)O

What was measured:
[1] = target: T1, unglycosylated and unsulfated synthetic peptide 19.ek (human, biotinylated; no sulfate, no glycan); experiment: SPR (BIAcore), biotinylated peptide on streptavidin chip
T1 construct: also called synthetic peptide lacking sulfated tyrosine
Method: Surface plasmon resonance binding analysis. A BIAcore 2000 instrument (BIAcore AB, Uppsala, Sweden) was used to analyze the interactions between the identified antibodies and biotinylated PSGL-1 19.ek.Fc or derived peptides. Binding experiments were performed at 25° C. using streptavidin-coated sensor chips (BIAcore) and HBS-P buffer (20 mM HEPES [pH 7.4], 150 mM NaCl and 0.005% polysorbate 20 v/v) adjusted to 1 mM for both CaCl₂ and MgCl₂. The streptavidin on the sensor surfaces were conditioned with three one-minute injections of a solution containing 1 M NaCl and 25 mM NaOH. The chips were regenerated with 5 μL of 0.1% TFA and equilibrated with running buffer. […] Binding kinetics were analyzed using BIAevaluation software (V2.1; Pharmacia Biosensor, Uppsala, Sweden). The response representing the mass of bound monoclonal antibodies was measured in resonance units (RU). […] Binding kinetics of human anti-PSGL-1 monoclonal antibodies to the immobilized PSGL-1 19.ek.Fc was determined under partial mass transport limitations by triplicate injections at a concentration range (0-100 nM) onto the immobilized biotinlylated PSGL-1 19.ek.Fc peptide at a flow rate of 30 μL/min, following injection for two minutes. Dissociation was monitored for ten minutes at the same flow rate. […]

[2] = target: T2, fully sulfated and glycosylated human PSGL-1 19.ek.Fc fusion protein (human, sulfated tyrosines (y in QATEyEyLDyDFL, corresponding to Tyr46, Tyr48 and Tyr51 of mature human PSGL-1); O-linked glycan; biotinylated in the assays); experiment: SPR (BIAcore 2000), biotinylated PSGL-1 19.ek.Fc on streptavidin chip, antibody 0-100 nM
T2 construct: also called PSGL-19.ek.Fc; PSGL-19.ed.Fc; not shown: human IgG1 Fc as described in Somers et al., Cell 103:467-479 (2000)
T2 chain: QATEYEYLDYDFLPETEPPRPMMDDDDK
Method: Surface plasmon resonance binding analysis. A BIAcore 2000 instrument (BIAcore AB, Uppsala, Sweden) was used to analyze the interactions between the identified antibodies and biotinylated PSGL-1 19.ek.Fc or derived peptides. Binding experiments were performed at 25° C. using streptavidin-coated sensor chips (BIAcore) and HBS-P buffer (20 mM HEPES [pH 7.4], 150 mM NaCl and 0.005% polysorbate 20 v/v) adjusted to 1 mM for both CaCl₂ and MgCl₂. The streptavidin on the sensor surfaces were conditioned with three one-minute injections of a solution containing 1 M NaCl and 25 mM NaOH. The chips were regenerated with 5 μL of 0.1% TFA and equilibrated with running buffer. […] Binding kinetics were analyzed using BIAevaluation software (V2.1; Pharmacia Biosensor, Uppsala, Sweden). The response representing the mass of bound monoclonal antibodies was measured in resonance units (RU). […] Binding kinetics of human anti-PSGL-1 monoclonal antibodies to the immobilized PSGL-1 19.ek.Fc was determined under partial mass transport limitations by triplicate injections at a concentration range (0-100 nM) onto the immobilized biotinlylated PSGL-1 19.ek.Fc peptide at a flow rate of 30 μL/min, following injection for two minutes. Dissociation was monitored for ten minutes at the same flow rate.

[3] = target: T3, BTK peptide (non-phosphorylated); experiment: dot blot on P81 phosphocellulose filters
T3 construct: also called Tufts peptide
T3 peptide: {Biotin-βAla}-AKKVVALYDYMPMN-OH
From the text: (§1) PSG2 is Specific for Sulfotyrosine as Compared to Phosphotyrosine. To compare binding to various peptides, a GPG-290 polypeptide (GPG) or a BTK peptide (BTK) (Tufts peptide) (biotin-βAla-[…]-[OH]) (SEQ ID NO:339), one microliter of 1:3 dilutions of compound was spotted onto P81 phosphocellulose filters (Upstate Cell Signaling #20-134). GPG-290 is a dimeric molecule consisting of the N-terminal 290 amino acids of GPIbα fused to a mutated Fc domain of human IgG1. It contains 3 sulfated tyrosine residues at positions 276, 278, and 279. The BTK peptide is biotin-βAla-[…]-[OH] (SEQ ID NO:339). Phospho-BTK contains 2 phosphorylated tyrosine residues. The starting dilution for GPG-290 was 250 ng/μl and for the BTK peptide the starting dilution was 3 μg/μl. Western Blot analysis was performed as follows: filters were blocked for 1 hour in blocking buffer (TBS+0.1% Tween-20 (TBS/T) and 5% nonfat dry milk). Filters were washed in TBS/T and incubated overnight in primary antibody diluted in TBS/T+0.5% BSA. Washed filters were incubated for 1 hour with secondary antibody diluted in blocking buffer (HRP-mouse anti-human IgG4 to detect PSG-2 and HRP-goat anti-mouse IgG+A+M to detect anti-phospho-tyrosine antibody). HRP signal was detected with the SuperSignal Chemiluminescent Substrate (Pierce) and the filters were exposed to X-ray film.

[4] = target: T4, Phospho-BTK peptide (SMILES …); experiment: dot blot on P81 phosphocellulose filters
T4 peptide: Biotin-[βAla]KKVVAL[pY]D[pY]MPMN-OH
From the text: as §1

B1: PSG1 full-length bivalent antibody (human IgG4, lambda) (antibody, V domains shown)
VH: QVQLQESGAEVKKPGASVKVSCKSSGYTFTAYYMHWLRQAPGQGLEWMGWINPNSGGTNYAQKFQGRVTLTRDTSISTAYMELNSLTSDDTAMYYCARGGPRVSSRPGIGYSDSWGKGTLVTVSS
VL: QTVVLQEPSLTVSPGGTVTLTCASRIGAVTSGHYANWFQQKPGQAPRALIYRTNNKQSWTPARFSGSLLGDRAALTLSGAQPEDEADYYCLLYYGGSWVFGGGTKLTVLG
notes: also called human monoclonal antibody PSG1
B1 was tested, and the binding result [1] was “no binding (tested: 100 nM)” and the Ka [2] was ~7.5e+09 M⁻¹.

B2: PSG2 full-length bivalent antibody (human IgG4, lambda) (antibody, V domains shown)
VH: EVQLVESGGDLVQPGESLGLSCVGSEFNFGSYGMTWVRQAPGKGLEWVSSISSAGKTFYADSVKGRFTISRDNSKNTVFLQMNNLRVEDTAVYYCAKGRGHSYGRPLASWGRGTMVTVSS
VL: QAVLTQPSSLSASPGASASLTCTLRSGIDVGPHRIYWFQQKPGSTPQYLLRYKSDSDTQQGSGVPSRFSGSKDASANAGILLISGLQSEDEADYYCMIWHSSAWVFGGGTKLTVLG
notes: also called P5G2; human monoclonal antibody PSG2
B2: no binding [3]; no binding [4]; no binding (tested: 100 nM) [1]. The Ka [2] was ~3.2e+10 M⁻¹.
